From patent US20230250178A1 (published 2023) come the findings set out here.

The target of one test is T1, human CCR8 (human, UniProt P51685 1-355).
T1 construct: also called hCCR8; P51685_CCR8_HUMAN
Description: FACS. Background: A flow cytometer gives signals particle by particle.

The next test has as its target T2, cynomolgus CCR8 (cynomolgus, UniProt O97665 1-356 (rhesus entry)).
T2 construct: also called cynoCCR8; G7NYJ2_CCR8_MACFA
The test can be described thus: FACS.

Test [1] deals with T3, murine CCR8 (mouse, UniProt P56484 1-353).
T3 construct: also called mCCR8; P56484_CCR8_MOUSE
T3 sequence: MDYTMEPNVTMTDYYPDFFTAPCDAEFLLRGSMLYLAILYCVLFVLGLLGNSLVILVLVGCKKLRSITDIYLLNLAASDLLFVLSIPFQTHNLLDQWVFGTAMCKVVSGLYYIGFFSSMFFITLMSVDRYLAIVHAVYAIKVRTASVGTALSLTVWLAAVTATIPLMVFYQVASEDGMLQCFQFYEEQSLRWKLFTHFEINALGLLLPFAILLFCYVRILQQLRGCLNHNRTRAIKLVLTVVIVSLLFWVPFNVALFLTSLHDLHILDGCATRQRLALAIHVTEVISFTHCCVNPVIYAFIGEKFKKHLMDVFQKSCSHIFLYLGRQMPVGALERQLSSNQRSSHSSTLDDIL
Description: FACS, murine iTregs.

The target in test [2] is T3, murine CCR8. Description: FACS, CHO-mCCR8.
Another test concerns the target T4, HSA alone (human, UniProt P02768 25-609).
T4 construct: control analyte; also called human serum albumin
The test can be described thus: SPR, IgG captured. (Surface plasmon resonance follows binding to a sensor surface in real time, without labels.)

Test [3] concerns the target T5, TPP-19951, His6-tagged murine CCR8 TRD fused with human serum albumin (mouse; human, not fully specified).
T5 construct: non-sulfated TRD; also called CCR8-HSA fusion protein (mouse); not shown: human serum albumin (HSA), C-terminal fusion partner
T5 chain: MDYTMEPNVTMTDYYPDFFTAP
The test can be described thus: SPR, IgG captured, TRD-HSA analyte. The protocol:
IgGs were captured using anti-human Fc IgGs covalently amine coupled to a CM5 sensor chip. […] The respective CCR8-HSA fusion protein was used as analyte with a concentration range of 1.56-200 nM in multicycle kinetics mode. Obtained sensorgrams were fitted to a 1:1 Langmuir binding model.

T2 sequence (O97665 other isoform, or with tags, fused parts or gaps): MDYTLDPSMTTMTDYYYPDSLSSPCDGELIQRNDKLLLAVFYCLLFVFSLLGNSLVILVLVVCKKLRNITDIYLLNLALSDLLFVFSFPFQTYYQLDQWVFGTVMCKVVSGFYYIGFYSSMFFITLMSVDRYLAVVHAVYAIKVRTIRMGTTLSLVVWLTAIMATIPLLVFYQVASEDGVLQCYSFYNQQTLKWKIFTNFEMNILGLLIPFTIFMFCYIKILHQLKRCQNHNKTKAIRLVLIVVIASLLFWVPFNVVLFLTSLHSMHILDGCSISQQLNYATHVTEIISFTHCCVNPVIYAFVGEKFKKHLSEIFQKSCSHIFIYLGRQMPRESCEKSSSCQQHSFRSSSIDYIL

B1: TPP-14099 (antibody, human IgG1, lambda, V domains shown)
VH: EVQLLESGGGLVQPGGSLRLSCAASGFTFSDYGVHWVRQAPGKGLEWVSGVSWNGSRTHYADSVKGRFTISRDNSKNTLYLQMNSLRAEDTAVYYCVTRGAWGQGTLVTVSS
VL: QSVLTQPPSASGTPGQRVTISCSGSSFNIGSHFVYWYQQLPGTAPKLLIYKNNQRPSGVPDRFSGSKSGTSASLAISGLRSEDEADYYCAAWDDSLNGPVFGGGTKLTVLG
notes: anti-murine CCR8, human IgG1 lambda; also called 497A-M005-F02-hIgG1Lambda
In the case of B1, the binding result with human CCR8, with cynomolgus CCR8 and in the test with HSA alone was “no binding” each time. Moreover, the EC50 (commonly the concentration needed to bring the measured effect to its halfway point) with murine CCR8 [1] stood at 13.2 nM; in the test with murine CCR8 [2] it was 3 nM. Further, the affinity in test [3], expressed as Kd, was 520 nM. In test [3], the off-rate constant (koff) (usually a measure of how fast the partners let go of each other) turned out to be 0.0011 s⁻¹. For the same molecule, the kon (usually a measure of how fast the partners come together) in test [3] stood at 2200 M⁻¹ s⁻¹.
